Results from patent publication US20220064254A1 (Janssen / Centocor, published 2022).

B1: KL2B467 (antibody, V domains shown)
VH: QVQLVESGGGVVQPGRSLRLSCAASGFTFSYYGMHWVRQAPGKGLEWVAFISYDGSNKYYADSVKGRFTISRDNSKNTLYLQMNSLRAEDTAVYYCAHLPYSGSYWAFDYWGQGTQVTVSS
VL: QSVLTQPPSVSVAPGQTASITCGGDNIGSKSVHWYQQKPGQAPVLVVYDNSDRPSGIPERFSGSNSGTTATLTISRVEAGDEADYYCQVWDSSSDHPVVFGGGTKVTVLG
notes: also called KL2B467 (Fab); KL2B467 Fab
B2: KL2B359 (scFv) (scFv, V domains shown)
VH: QVQLQESGPGLVKPSQTLSLTCTVSGNSITSDYAWNWIRQFPGKRLEWIGYISYSGSTTYNPSLKSRVTISRDTSKNQFSLKLSSVTAADTAVYYCATGYYYGSGFWGQGTLVTVSS
VL: EIVLTQSPATLSLSPGERATLSCRASESVEYFGTSLMHWYQQKPGQPPRLLIYAASNVESGIPARFSGSGSGTDFTLTISSVEPEDFAVYFCQQTRKVPYTFGGGTKVEIK
notes: also called Clone KL2B359; rehumanized 11B6
B3: KL2B30 (antibody, V domains shown)
VH: QVQLQESGPGLVKPSETLSLTCTVSGGSISSYYWSWIRQPPGKGLEWIGYIYYSGSTNYNPSLKSRVTISVDTSKNQFSLKLSSVTAADTAVYYCAGTTIFGVVTPNFYYGMDVWGQGTTVTVSS
VL: DIQMTQSPSFLSASVGDRVTITCRASQGISSYLAWYQQKPGKAPKFLIYAASTLQSGVPSRFSGSGSGTEFTLTISSLQPEDFATYYCQQLNSYPLTFGGGTKVEIKR
notes: also called KL2B30 (Fab); KL2B30 Fab
B4: KL2B53 (antibody, V domains shown)
VH: EVQLVESGGGVVQPGRSLRLSCVASGFTFSSYDIHWVRQAPGKGLEWVAIISYDGSKKDYTDSVKGRFTISRDNSKNTLYLQMDSLRVEDSAVYSCARESGWSHYYYYGMDVWGQGTMVTVSS
VL: DIVMTQSPSSLSASVGDRVTITCRASQDISNYLAWYQQKPGKVPKFLIYAASTLHSGVPSRFSGSGSGTDFTLTISSLQPEDVATYYCQKYNSAPYTFGQGTRLEIKR
notes: also called KL2B53 (Fab); KL2B53 Fab
B5: KL2B242 (antibody, human IgG4 S228P, lambda, F234A L235A, V domains shown)
VH: QVQLQESGPGLVKPSETLSLTCTVSGGSISSYYWSWLRQPAGSGLEWIGRLYVSGFTNYNPSLKSRVTLSLDPSRNQLSLKLSSVTAADTAVYYCAGDSGNYWGWFDPWGQGTLVTVSS
VL: SYELTQPPSVSVSPGETASITCSGDQLGENYACWYQQKPGQSPVLVIYQDSKRPSGIPERFSGSNSGNTATLTISGTQALDEADYYCQAWDNSIVVFGGGTKLTVLG
notes: also called KL2B242 (Fab); KL2B242 Fab
B6: KL2B494 (antibody, V domains shown)
VH: QVQLVESGGGLVQPGGSLRLSCAASGFTFSHYAMSWVRQAPGKGLEWVSTIGGSGGSTYYADSVKGRFTISRDNSKNTLYLQMNSLRAEDTAVYYCAKPHIVMVTALLYDGMDVWGQGTMVTVSS
VL: SSELTQPPSVSVAPGQTARITCGGNNIGSKSVHWYQQKPGQAPVLVVYDDSDRPSGIPERFSGSNSGNTATLTISRVEAGDEADYYCQVWDSSSDHVVFGGGTKLTVLG
notes: also called KL2B494 (Fab); KL2B494 Fab
B7: CAR17 (KL2B413_HL) (other)
chain: EVQLVESGGGLVQPGGSLRLSCAASGFTFSSYWMTWVRQAPGKGLEWVANIKQDGSERYYVDSVKGRFTISRDNAKNSLYLQMNSLRAEDTAVYYCARDQNYDILTGHYGMDVWGQGTTVTVSSGGSEGKSSGSGSESKSTGGSEIVLTQSPSFLSASVGDRVTITCRASQGISSYLSWYQQKPGKAPKLLIYATSTLQSGVPSRFSGSGSGTEFTLTISSLQPEDFATYYCQQLNSYPRTFGQGTKVEIKTSTPAPRPPTPAPTIASQPLSLRPEACRPAAGGAVHTRGLDFACDIYIWAPLAGTCGVLLLSLVITLYCKRGRKKLLYIFKQPFMRPVQTTQEEDGCSCRFPEEEEGGCELRVKFSRSADAPAYKQGQNQLYNELNLGRREEYDVLDKRRGRDPEMGGKPRRKNPQEGLYNELQKDKMAEAYSEIGMKGERRRGKGHDGLYQGLSTATKDTYDALHMQALPPR
notes: also called KL2B413 HL CAR; pBD000091628
B8: CAR19 (KL2B359_HL) (other)
chain: QVQLQESGPGLVKPSQTLSLTCTVSGNSITSDYAWNWIRQFPGKRLEWIGYISYSGSTTYNPSLKSRVTISRDTSKNQFSLKLSSVTAADTAVYYCATGYYYGSGFWGQGTLVTVSSGGSEGKSSGSGSESKSTGGSEIVLTQSPATLSLSPGERATLSCRASESVEYFGTSLMHWYQQKPGQPPRLLIYAASNVESGIPARFSGSGSGTDFTLTISSVEPEDFAVYFCQQTRKVPYTFGGGTKVEIKTSTPAPRPPTPAPTIASQPLSLRPEACRPAAGGAVHTRGLDFACDIYIWAPLAGTCGVLLLSLVITLYCKRGRKKLLYIFKQPFMRPVQTTQEEDGCSCRFPEEEEGGCELRVKFSRSADAPAYKQGQNQLYNELNLGRREEYDVLDKRRGRDPEMGGKPRRKNPQEGLYNELQKDKMAEAYSEIGMKGERRRGKGHDGLYQGLSTATKDTYDALHMQALPPR
notes: also called KL2B359 HL CAR; rehumanized 11B6 HL CAR
B9: CAR20 (KL2B359_LH) (other)
chain: EIVLTQSPATLSLSPGERATLSCRASESVEYFGTSLMHWYQQKPGQPPRLLIYAASNVESGIPARFSGSGSGTDFTLTISSVEPEDFAVYFCQQTRKVPYTFGGGTKVEIKGGSEGKSSGSGSESKSTGGSQVQLQESGPGLVKPSQTLSLTCTVSGNSITSDYAWNWIRQFPGKRLEWIGYISYSGSTTYNPSLKSRVTISRDTSKNQFSLKLSSVTAADTAVYYCATGYYYGSGFWGQGTLVTVSSTSTPAPRPPTPAPTIASQPLSLRPEACRPAAGGAVHTRGLDFACDIYIWAPLAGTCGVLLLSLVITLYCKRGRKKLLYIFKQPFMRPVQTTQEEDGCSCRFPEEEEGGCELRVKFSRSADAPAYKQGQNQLYNELNLGRREEYDVLDKRRGRDPEMGGKPRRKNPQEGLYNELQKDKMAEAYSEIGMKGERRRGKGHDGLYQGLSTATKDTYDALHMQALPPR
notes: also called KL2B359 LH CAR; rehumanized 11B6 LH CAR

Target: T1, soluble human Kallikrein-2 (hK2) (human, UniProt P20151 25-261)
T1 construct: The construct used in SPR, ELISA and MSD screening is not defined; the stated signal peptide (1-18) is left out, and the pro-peptide (19-24) may or may not have been present; also called KLK2; soluble hK2
Test: SPR; antibody captured on anti-Fc sensor chip, soluble hK2 injected; 1:1 Langmuir fit, KD = koff/kon

T1 sequence (P20151 25-261): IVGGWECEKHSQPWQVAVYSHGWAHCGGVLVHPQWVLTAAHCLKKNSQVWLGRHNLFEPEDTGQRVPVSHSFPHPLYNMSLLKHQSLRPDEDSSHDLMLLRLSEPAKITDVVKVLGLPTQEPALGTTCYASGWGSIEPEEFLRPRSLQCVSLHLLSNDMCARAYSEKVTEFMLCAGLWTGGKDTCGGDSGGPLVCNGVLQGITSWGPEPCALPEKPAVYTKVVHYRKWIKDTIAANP

Kd [nM] | Binder
0.078 | B1
0.7 to 1 | B2
0.46 | B3
0.08 | B4
0.04 | B5
0.053 | B6

Target: T2, biotinylated recombinant hK2 protein (human, UniProt P20151 25-261, biotin label (EZ-Link Sulfo-NHS-LC-Biotin))
T2 construct: In-house biotin-labelled recombinant hK2 used as the flow cytometry reagent; also called biotinylated hK2; Biotin-Hk2 protein
Test: flow cytometry; primary human T cells lentivirally transduced with the CAR (MOI 3), day 14, stained with biotinylated hK2 (1 ug/ml) then streptavidin-PE; UTD control gate 0.065

T2 sequence (P20151 25-261): as above

percent of CD3+ T cells in the PE-positive gate (hK2 CAR) [%] | Binder
56 | B7
45.1 | B8
59.9 | B9

Target: T2, biotinylated recombinant hK2 protein
Test: flow cytometry; CAR-transduced JNL cells stained with biotinylated hK2 and streptavidin-PE

% of JNL cells stained with biotinylated hK2 (reported as CAR expression) [%] | Binder
73.7 | B7
46 | B8
50.8 | B9

Target: hK2 on target cells (VCaP, LNCaP/hK2, LNCaP, C4-2B) (human, UniProt P20151 19-261)
Test: cell-based or functional assay

Sequence of hK2 on target cells (VCaP, LNCaP/hK2, LNCaP, C4-2B) (P20151 19-261): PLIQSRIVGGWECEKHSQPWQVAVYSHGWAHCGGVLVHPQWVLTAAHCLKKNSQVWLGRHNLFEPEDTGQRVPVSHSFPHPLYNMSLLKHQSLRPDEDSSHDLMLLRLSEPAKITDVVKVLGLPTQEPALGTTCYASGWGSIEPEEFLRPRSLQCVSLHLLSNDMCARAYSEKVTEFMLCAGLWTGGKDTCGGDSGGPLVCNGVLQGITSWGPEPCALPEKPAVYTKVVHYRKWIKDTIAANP

Binder | tumor cell growth inhibition (TGI, %) of hK2 positive VCaP cells, real-time IncuCyte killing assay, 96 hours [%]
B7 | ~100
B8 | ~100
B9 | ~100
